Among the data in article doi:10.1101/2023.04.30.538836 are stoichiometry N values, retold here.

The target in the experiment is PlsB from Themomonas haemolytica (Themomonas haemolytica). The experiment in a line: cryo-EM structure.

What is called stoichiometry N is the number of molecules, sites or subunits per partner or assembly. Substance “PlsB from Themomonas haemolytica (enzyme)” returned a stoichiometry N of 2.
